Laboratory results published in the nanobody polyreactivity screen of Harvey et al. (2022).

Assay: yeast display, Sf9 membrane polyspecificity reagent, FACS + sequencing; frameworks hold sequencing errors
In short: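 Nanobodies came from a synthetic yeast display library in Saccharomyces cerevisiae BJ5465, induced with galactose for 36–48 hours and stained for 1 hour at 4 °C with 10% biotinylated, detergent-solubilized Sf9 membrane reagent. Cells were enriched on streptavidin microbeads and then FACS-sorted, with low and high (top ~1%) gates set on anti-HA fluorescence for expression and streptavidin fluorescence for reagent binding. Each polyreactivity label reflects the gate a clone came from. Genes were amplified by colony PCR, sequenced by MiSeq 2 × 250 and filtered by CDR length.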

Sequence: QLQLEESAGGLVQAGGSLRLSCAASGLTFPSYVMGRYRPAPGKEREFVAASTGSAGSTYYADSVKGRLTISRDNAKNTVYLQMISLKPEDSAVYYCAARVRYVNPKYYYWGHGTQVTVSS
- polyreactivity (PSR sort gate): high polyreactivity

Sequence: QVQLVESGGGLVQAGGSLRLSCAASGFIFGANAMGWYRQAPGKERELVAAITWSAGRTYYADSVKGRFTISRDNAKNNVYLQMNSLKPEDTAVYYCAKQRARQSPEVGYWGQGTQVTVSS
- polyreactivity (PSR sort gate): high polyreactivity

Sequence: QVQLVESGGGLVQAGGSLRLSCAASGSTFRVYGMGWYRQAPGKERELDAAIRWIGGRTYYADSVKGRFTISRDNAKNTVYLQMNSLKAEDTAVYYCNARAGPVRFDYWGQGTQVTVSS
- polyreactivity (PSR sort gate): low polyreactivity

Sequence: QVQLVESGGGLVQAGGSLRLSCAASGRIFTHYAMGWYRQAPGKERELVAAISRTGGTTNYADSVKGRFTISRDNAKNTVYLQMNSLKPEDTAVYYCAAVGKGAKDYFKYYSLGQGTQVTVSS
- polyreactivity (PSR sort gate): high polyreactivity

Sequence: QVQLVESGGGLVQAGGSLRLSCAASGSTFYYNAMGWYRQAPGKERELVAAISKRGGTTSYADSVKGRFTISRDNAKNTVYLQMNSLKPEDTADYYCADQTYLRQYYRYYWGQGTQVTVSS
- polyreactivity (PSR sort gate): high polyreactivity

Sequence: QVQLVESGGGLVQAGGSLRLSCAASGRIFRGNAMGWSRQAPGKERELVAGISVRGGRTYYADSVKGRFTISRDNAKNTVYLQMNSLKPEDTAVYYCAAVFWDDYGKYYYWGQGTQVTVSS
- polyreactivity (PSR sort gate): high polyreactivity

Sequence: QVQLVESGGGLVQAGGSLRLTCAASGFTFHNYAMGWYRQAPGKERELVAVIRWRGGSTYYADSVKGRFTISRDNAKNTVYLQMNSLKPEDTAVYYCAKRARGSYYWGYNYWGQGTQVTVSS
- polyreactivity (PSR sort gate): high polyreactivity

Sequence: QVQLVESGGGLVQAGGSLRLSCAASGRIFDVYAMGWYRQAPGKERALVAAITFSGGSTYYADSVKGRFTISRDNAKNTVYLQMNSLKPEDTAVYYCAAEYVDWFGDYDYWGQGTQVTVSS
- polyreactivity (PSR sort gate): high polyreactivity

Sequence: QVQLVESGGGLVQAGGSLRLSCAASGSIFYVYAMGWYRQAPGKEREFVASIRTSGSSTYADSVKGRFTISRDNAKNTVYLQMNSLKPEDTAVYYCAAGSITVFWKRTGYRWRGYDYWGQGTQVTVSS
- polyreactivity (PSR sort gate): low polyreactivity

Sequence: QVQLEDSGGGLVQAGGSLRLSCAASGGTFRYNSMGWYRPAPGKERELVAGITWGGGSTYYADSVKGRFTISRDYAKNSVYLQMNSLKPEDTAVYYCNAVRPRQWWTHYGYWGQGTQVTVSS
- polyreactivity (PSR sort gate): high polyreactivity

Sequence: QVQLVESGGGIVQAGGSLRLSCAASGSIFYGYAMGWYRQAPGNERELVAAISSGGRTKYADSVKGRFTISRDNAKNTVYLQMNSLKPEDTAVYYCNVSYLVYRWNFGWSMDYWGQGTQVTVSP
- polyreactivity (PSR sort gate): low polyreactivity

Sequence: QVQLVESGGGLVQAGGSLRLSCAASGRTFGNNAMGWYRQAPGKERELVASISSSGGTNYADSVKGRFTISRDNAKNTVYLLMNSLIPEDTAVYYCAKRKFTARQRFWGQGTQVTVSS
- polyreactivity (PSR sort gate): high polyreactivity

Sequence: HVQLVESAGGLVQAGGSLRLSCAASGFIFGYYAMGWYRQAPGKERELVAAINYNDDSTYYADSVKGRFTISRDNAKNTVYLQMNSLKPEDTAVYYCAVRRWDAGDYWGQGTQVTVSS
- polyreactivity (PSR sort gate): low polyreactivity

Sequence: QVQLVESGGGLVQAGGSLRLSCAASGSTFRNYAMGWSRQAPGKERELVAAISGSGGRTKYADSVKGRFTISRDNAKNTVYLQMNSLKPEDTAVYYWNARFPDWALSEISHSTTYGLWGQGTLVTVSS
- polyreactivity (PSR sort gate): low polyreactivity

Sequence: QVQLVESGGGLVQAGGSLRLSCAASGSIFVRYAMGWYRQAPGKERELVAAISSGGRTYYADSVKGRFTISRDNAKYTVYLQMNSLKPEDTAVYYCNAVKRVPSLGPYDYWGQGTQVTVSS
- polyreactivity (PSR sort gate): high polyreactivity

Sequence: QVQLVESGGGLVQAGGSLRLSCAASGSTFPYNAMGWYRQAPGKERELVAAITSSGRTNYADSVKGRFTITLDNAKNTVYLQMNSLKPEDTAVYYCAAGRWYAHRVDYWGQGSQVTVSS
- polyreactivity (PSR sort gate): low polyreactivity

Sequence: QVQLVESGGGLVQAGGSLRVSCAASGFIFPGNAMGWYRQAPGKERELVAAISNSGSRTYYADSVKGRFTISRDNAKNTVYLQMNSLKPEDTAVYYCNADVHNRGWPYDYWGQGTQVTVSS
- polyreactivity (PSR sort gate): low polyreactivity

Sequence: QVQLVESGGGLVQAGGSLRLSCADSGSILGNAMVWYRQAPGKERELVAAITRGVSTYYADSVKGRFTISRDNAKNTVYLQMNSLKPEDTAVYYCYKTYVRGVHGVYLPITSYDYWGQGTQVTVSS
- polyreactivity (PSR sort gate): low polyreactivity

Sequence: QVQLVESGGGLVQAVGSLRLSCAASGRTFNSYTMGWYRQAPGKERELVAAISSGGSTTYADSVKGRFTISRDNAKNTVYLQMNSLKPEDTAVYYCAAGLVYRGYRRDYWGQGTQVTVSS
- polyreactivity (PSR sort gate): low polyreactivity

Sequence: QVQLVESVGGLGQAGGSLRLSCASSGFTFARYAMAWYIQAPGKERELVAAISGSGSTYYADSVKGRFTISRDNAKNSVYLQMNSLKTEDTAVYYCNAGNFGRFGFWGQGTQVTVSS
- polyreactivity (PSR sort gate): high polyreactivity

Sequence: QVQLVESGGGLVQAGVSLRLSCAASGRIFHFYAMGCYRQAPGKERELVASITWRGGRTYYADSVKARFTISRDNAKNTVFLQMNSLKPEDTAVYYCAADFRSGFSSSTTPVQSDWGQGTQVTVSS
- polyreactivity (PSR sort gate): low polyreactivity

Sequence: QVQLVVSGGGLVQAGGSLRLSCAASGIIFVQYTMGWYRQAPGQERELDAAITRGGNTYYADSVKGRFTISRDNAKNTVYLQMNSLKPEATAVYYCNKAYWYANLRYRTGVKLQFYYWGQGTQVNVSS
- polyreactivity (PSR sort gate): high polyreactivity

Sequence: QVQRVESGGGLFQAGGSLRLSCAASGITFRYYNMGWYRQAPGKERELVAAISSSGGSTYYADSVKGRFTISRDNAKNTVYLQMNSLKPEDTAVYYCAAESKYSTSSPRRDYWGQGTQVTVSS
- polyreactivity (PSR sort gate): high polyreactivity

Sequence: QVQLVESGGGLVQAGGSLRLSCAASGRILDRYAMGWYRQAPGKERELVAVITDRGGNTYYADSVKGRFTISRDNAKNTVYLQMNSLKPEDTAVYYCAVYAYWRFRTYYYWGQGTQVTVSS
- polyreactivity (PSR sort gate): high polyreactivity

Sequence: QVQLVESGGGLVQAGGSLRLSCAASGFIFTVYAMGWSRQAPGKERELVAAISRGGGSTSYADSVKGRFTISRDNAKNTVYLQMNSLKPEDTAVYYCNAKYKYSRGYDYWGQGTQVTVSS
- polyreactivity (PSR sort gate): high polyreactivity

Sequence: QVQLGESGGGLVQAGGSLRLSCAACGSIFKPYAMGWYRQAPGTERELVAAISGIGGSTYYADSVKGRFTISRDTAKNTVYLQMNSLTPEDTAVYYCAADTFFKIFSEYNYWGQGTQVTLSS
- polyreactivity (PSR sort gate): high polyreactivity

Sequence: QVQLVESGGGLVQAGGSLRLSCAASGSIFGPYAMGWYRQAPGKERELVAAISRGSRTNYADSVKGRFTISRDNAKNTVYLQMNSLKPEDTAVYYCAARYVWRSTHHRGSTYDYWGQGTQVTVSS
- polyreactivity (PSR sort gate): high polyreactivity

Sequence: QVQLVESGGGLVQAGGSLRLSCSASGSIFYWYDMGWYRLAPGKERELVAAISSGGSTNYADSVKGRFTISRDNAKNTVYLQMISLKPEDTAVYYCNADVPLRYGPIYFRRLDYWGQGTQVTVSS
- polyreactivity (PSR sort gate): low polyreactivity

Sequence: QVQLVESGGGLVQAGGSLRLSCAASGFIFGRYAMGWYRQAPGKERELVAGISSRGGRTYYADSVKGRFTISRDTAKNPVFLQINSLKPEDTAVYYCGAAGLTDYVRYDYWGQGTQVTVSS
- polyreactivity (PSR sort gate): high polyreactivity

Sequence: QVQLVESGGGLVQAGGSLRLSCAASGRTFTINTMGWYRQAPGKERELVAAITVSGGSTYYADSVKGRFTISRDNAKNTVYLQMNSLKPEDTAVYYCAAQRSYVNLGQTHDYWGQGTQVNVSS
- polyreactivity (PSR sort gate): low polyreactivity

Sequence: QVQLVESGGGLVQAGGSLRLSCAASGFTFGRYAMGWYRPAPGKERELVAAISRSGGRTYYADTVKGRFTISRDNAKNTVYLQMNSLKPEHTAVYYCAAYGGVEDDYWGQGTQVTVSS
- polyreactivity (PSR sort gate): low polyreactivity
